{
  "source": "patent US20200057058A1",
  "about": "(MIT, published 2020)",
  "key": {"streptavidin [1]": {"molecular_target": "T1, streptavidin (UniProt P22629 37-163, limits assumed)", "T1 construct": "It was used without a stated label in the sandwich assays; also called SA", "T1 sequence (P22629 37-163 limits assumed)": "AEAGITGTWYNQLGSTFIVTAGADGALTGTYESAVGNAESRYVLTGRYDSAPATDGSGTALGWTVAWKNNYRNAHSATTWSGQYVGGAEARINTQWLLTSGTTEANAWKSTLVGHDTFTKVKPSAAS", "experiment": "fluorescent binding curve, labeled SA in 50% urine, 4 h; quadratic fit"}, "[2]": {"molecular_target": "monomeric streptavidin variant mSA2", "experiment": "fluorescent binding curve, labeled mSA2 in 50% urine, 4 h; quadratic fit"}, "streptavidin [3]": {"molecular_target": "T1, streptavidin", "experiment": "fluorescent binding curve, labeled SA in PBS, 4 h exposure; quadratic fit"}, "streptavidin [4]": {"molecular_target": "T1, streptavidin", "experiment": "fluorescent binding curve, labeled SA in 50% blood serum, 4 h; quadratic fit"}, "[5]": {"molecular_target": "monomeric streptavidin variant mSA2", "experiment": "fluorescent binding assay, labeled mSA2 in PBS on monolayer; quadratic curve fit", "procedure": "The binding function of rcSso7d.SA oligomer-PNIPAM thin films was measured using fluorescently-labeled monomeric streptavidin (mSA2) and fluorescently-labeled streptavidin (SA). Details for the expression, purification, and fluorescent labeling of mSA2 are provided below. Samples were prepared by serial dilution of SA or mSA2 in PBS (pH 7.4), human urine (diluted to 50% v/v in PBS, pH 7.4), or blood serum (obtained as the supernatant by centrifuging whole blood at 1500×g for 10 minutes, then diluted to 50% v/v in PBS, pH 7.4). 0.5 μL drops of solutions containing serially diluted fluorescent mSA2 and fluorescent SA samples in PBS (pH 7.4) were gently applied to the surface of each bioconjugate thin film. […] After 1 hour, films were thoroughly rinsed with water for 10 seconds (a time determined to be sufficient to remove unbound molecules from the film, see FIG. 33, dried under filtered airflow, and immediately analyzed for fluorescent signal. Fluorescence microscopy images were acquired at 4× magnification using a Cy5 filter set and exposure time of 5000 ms on an Olympus IX-81 inverted fluorescence microscope with an AxioCam HRC CCD camera. Fluorescent intensity was calculated using ImageJ software⁶⁷ by determining the average fluorescent signal in a rectangular area of the fluorescent image free of defects and occupying no less than half of the full sample application area. […]"}, "[6]": {"molecular_target": "monomeric streptavidin variant mSA2", "experiment": "fluorescent binding assay, labeled mSA2; signal three standard deviations above blank", "procedure": "(§1) The binding function of rcSso7d.SA oligomer-PNIPAM thin films was measured using fluorescently-labeled monomeric streptavidin (mSA2) and fluorescently-labeled streptavidin (SA). Details for the expression, purification, and fluorescent labeling of mSA2 are provided below. Samples were prepared by serial dilution of SA or mSA2 in PBS (pH 7.4), human urine (diluted to 50% v/v in PBS, pH 7.4), or blood serum (obtained as the supernatant by centrifuging whole blood at 1500×g for 10 minutes, then diluted to 50% v/v in PBS, pH 7.4). 0.5 μL drops of solutions containing serially diluted fluorescent mSA2 and fluorescent SA samples in PBS (pH 7.4) were gently applied to the surface of each bioconjugate thin film. Films were incubated in a sealed chamber saturated with water vapor at room temperature to prevent to prevent drying of the applied fluorescent samples. After 1 hour, films were thoroughly rinsed with water for 10 seconds (a time determined to be sufficient to remove unbound molecules from the film, see FIG. 33, dried under filtered airflow, and immediately analyzed for fluorescent signal. Fluorescence microscopy images were acquired at 4× magnification using a Cy5 filter set and exposure time of 5000 ms on an Olympus IX-81 inverted fluorescence microscope with an AxioCam HRC CCD camera. Fluorescent intensity was calculated using ImageJ software⁶⁷ by determining the average fluorescent signal in a rectangular area of the fluorescent image free of defects and occupying no less than half of the full sample application area.\nOligomerization of rcSso7d.SA also brings about a decrease in biosensor limit of detection (LOD). […] While all thin films display improvements up to threefold in LOD over the monolayer, the trend in LOD with respect to degree of oligomerization is non-monotonic. The primary factor that is expected to affect LOD in the studied biosensors is number of binding sites, as more binding sites enable a greater number of analyte molecules to be captured and shifts analyte-receptor equilibrium in favor of binding events."}, "[7]": {"molecular_target": "monomeric streptavidin variant mSA2", "experiment": "fluorescent binding assay, labeled mSA2 in PBS on the monolayer, 4 h exposure"}, "streptavidin [8]": {"molecular_target": "T1, streptavidin", "experiment": "apparent Kd (Kd,app); fluorescent binding curve, labeled SA in PBS, 4 h exposure; quadratic fit"}, "[9]": {"molecular_target": "monomeric streptavidin variant mSA2", "experiment": "apparent Kd (Kd,app); fluorescent binding curve, labeled mSA2 in PBS, 4 h exposure; quadratic fit", "procedure": "as §1, with “After 1 hour, films were thoroughly rinsed with water for 10 seconds (a time determined to be sufficient to remove unbound molecules from the film, see FIG. 33, dried under filtered airflow, and immediately analyzed for fluorescent signal.” left out\nTo evaluate how the apparent size-based diffusion properties translated to biosensing capabilities, binding curves were measured using SA and mSA2 solutions in buffer. Binding curves were fit with a quadratic model that is a function of three parameters: the average MFI per binding event a, the total concentration of binding sites [P]T, and the apparent dissociation constant K_{d,app} describing the binding equilibrium between analyte and binding sites within the thin film."}},
  "data": [
    {"binder": "rcSso7d.SA monolayer (designed binder, EDC/NHS-activated protein coupled to an amine-functionalized silicon wafer, also called monomeric rcSso7d.SA; surface-immobilized rcSso7d.SA) MGSIHHHHHHSSGLVPRGSHMCATVKFTYQGEEKQVDISKIKIVARDGQYIDFKYDEGGGAYGYGWVSEKDAPKELLQMLEKQ", "values": [
      {"measurement": "[P]T (total concentration of binding sites)", "setting": "streptavidin [1]", "value": 0.29, "unit": "nM"},
      {"measurement": "[P]T (total concentration of binding sites)", "setting": "[2]", "value": 0.4, "unit": "nM"},
      {"measurement": "[P]T (total concentration of binding sites)", "setting": "streptavidin [3]", "value": 0.36, "unit": "nM"},
      {"measurement": "[P]T (total concentration of binding sites)", "setting": "streptavidin [4]", "value": 0.28, "unit": "nM"},
      {"measurement": "Kd", "setting": "[5]", "value": 2000, "unit": "nM"},
      {"measurement": "limit of detection (LOD)", "setting": "[6]", "value": 360, "unit": "nM"},
      {"measurement": "EC50 (read off the curve)", "setting": "[7]", "value": "~3000", "unit": "nM"},
      {"measurement": "Kd", "setting": "streptavidin [8]", "value": 8000, "unit": "nM"},
      {"measurement": "Kd", "setting": "[9]", "value": 3000, "unit": "nM"}
    ]}
  ]
}
